These results are taken from patent US6793917 (SHIONOGI, dated 2004).

Assay [1] deals with T1, receptor for TARC on Jurkat cell and certain other T-cells.
T1 construct: also called TARC receptor; receptors for TARC
Kind of assay: displacement of 2 nM 125I-labeled TARC from Jurkat cells by unlabeled TARC, Scatchard analysis.

The target of assay [2] is T2, Duffy antigen/receptor for chemokine (DARC) on erythrocytes (UniProt Q16570 1-336).
T2 construct: whole, on cells
T2 sequence (looked up): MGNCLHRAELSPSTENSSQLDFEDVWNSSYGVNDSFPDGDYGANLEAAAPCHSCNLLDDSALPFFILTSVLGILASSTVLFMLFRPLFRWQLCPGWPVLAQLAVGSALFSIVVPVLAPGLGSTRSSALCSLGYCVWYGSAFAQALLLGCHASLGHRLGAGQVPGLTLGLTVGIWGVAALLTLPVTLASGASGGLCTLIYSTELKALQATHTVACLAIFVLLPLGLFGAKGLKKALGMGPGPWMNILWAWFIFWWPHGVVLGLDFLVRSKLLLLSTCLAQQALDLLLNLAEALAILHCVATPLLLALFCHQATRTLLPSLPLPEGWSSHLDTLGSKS
Kind of assay: displacement of 0.66 nM 125I-labeled TARC from 10^8 erythrocytes by unlabeled TARC, Scatchard analysis. The source says:
It has been known that erythrocyte expresses a Duffy antigen/receptor for chemokine (DARC) to which various chemokines can be bound.

The target in assay [3] is T3, CCR4 expressed on 293/EBNA-1 cells (human, UniProt P51679 1-360).
T3 construct: whole, on cells; also called CCR4 receptor
T3 sequence (looked up): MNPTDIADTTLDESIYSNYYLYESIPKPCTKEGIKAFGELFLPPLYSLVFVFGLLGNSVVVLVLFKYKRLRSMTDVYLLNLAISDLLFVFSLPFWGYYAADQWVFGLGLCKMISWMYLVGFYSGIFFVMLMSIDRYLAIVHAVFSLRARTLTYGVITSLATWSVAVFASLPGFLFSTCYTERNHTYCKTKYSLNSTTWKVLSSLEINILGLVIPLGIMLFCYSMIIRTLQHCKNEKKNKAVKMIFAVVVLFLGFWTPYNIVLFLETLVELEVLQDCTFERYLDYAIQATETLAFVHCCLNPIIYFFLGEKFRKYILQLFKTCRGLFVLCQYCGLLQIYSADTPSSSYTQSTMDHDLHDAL
Kind of assay: displacement of 1 nM TARC-SEAP from 4x10^5 293/EBNA-1 cells expressing CCR4 by unlabeled TARC. As for the experimental part:
The binding experiment was conducted in 200 μl RPMI-1640 containing 20 mM HEPES (pH 7.4), 1% BSA, and 0.02% sodium azide. […] Cells were washed and dissolved in 50 μl 10 mM Tris-HCl (pH 8.0) containing 1% Triton X-100, and treated at 65° C. for 10 minutes to inactivate the phosphatase originated from the cells. After centrifugation, the AP activity in 25 μl of the supernatant was measured. The nonspecific binding was measured using 1 nM SEAP.

For assay [4], the target named is T1, receptor for TARC on Jurkat cell and …. Kind of assay: saturation binding of 125I-labeled TARC to Jurkat cells, Scatchard analysis. The source says: To determine the binding constant and the number of receptor, conditions under which the binding reaches equilibrium were examined.

B1: human TARC (Thymus and Activation-Regulated Chemokine), mature secreted form, expressed in and purified from insect cells (ligand)
chain: ARGTNVGRECCLEYFKGAIPLRKLKTWYQTSEDCSRDAIVFVTVQGRAICSDPNNKRVKNAVKYLQSLERS
notes: also called hTARC; unlabeled TARC
What is called Kd is the equilibrium constant for the complex coming apart. The IC50 is the concentration that inhibits the measured activity by half. For the molecule B1, the equilibrium dissociation constant (Kd) in assay [1] was found to be 2.1 nM; in assay [2] it was 17 nM. The molecule also gave an IC50 in assay [3] of around 3 nM.

B2: 125I-labeled human TARC (ligand)
chain: B1 chain
modifications: 125I label introduced with 125I-labeled Bolton-Hunter reagent (site not stated)
notes: specific activity 81.6 uCi/ug
B2 displayed an equilibrium dissociation constant (Kd) in assay [4] of 2.1 nM.
